Like-named read-outs stand apart in the source and are kept apart here.

Test [1] concerns the target T1, cynomolgus monkey PVRIG (Novoprotein, Cat NO. C09B) (cynomolgus monkey, UniProt A0A2K5WVV8 41-171).
T1 construct: Bought protein; construct not described; also called cynomolgus monkey PVRIG protein
T1 sequence: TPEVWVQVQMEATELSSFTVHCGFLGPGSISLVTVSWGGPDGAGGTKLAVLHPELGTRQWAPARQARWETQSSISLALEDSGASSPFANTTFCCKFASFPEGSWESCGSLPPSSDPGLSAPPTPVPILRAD
As to the kind of experiment: ELISA, coated cynomolgus PVRIG. Here is the method:
(§1) The ELISA plate was pre-coated with 50 μL/well of 1.0 μg/mL human PVRIG (AcroBiosystems, Cat NO. PVG-H52H4) or 50 μL/well of 0.5 μg/mL cynomolgus monkey PVRIG (Novoprotein, Cat NO. C09B). The tested antibodies were serially diluted (initial concentration 13 nM, 3-fold serial dilution, 12 concentration points), added into the plate (50 μL/well) and incubated at 37° C. for 2.0 hours. After washing the plate, the Goat anti-human IgG Fc-HRP (Merck, Cat NO. AP113P) working solution (dilution ratio 1:5000, 50 μL/well) were added into wells and incubated at 37° C. for 1.0 hour. A HRP substrate, TMB (KPL, Cat NO. 5120-0077) was added into wells after washing the plate again and incubated at 37° C. for 10 minutes for color development. After adding a termination solution to terminate the reaction, the absorbance value was read by a microplate reader (PE, Ensight-HH3400). An antibody binding curve was drawn with molar concentration of antibodies as the abscissa and the corresponding OD value as the ordinate. The EC50 value was calculated by using a Four Parameter Logistic Fit (GraphPadPrism9). […] The positive control antibodies are COM701-hIgG1, PVRIG-A50-H1b and PVRIG-A105-H1; and the negative control antibodies are anti-Fluorescein-hIgG1 (in house). The binding results of the 4 humanized bispecific antibodies to human PVRIG protein are shown in FIG. 41 and Tables 40 and 41, and the binding results to cynomolgus monkey PVRIG are shown in FIG. 42 and Tables 40 and 41. […] The binding of LC-BsAb-002 and LC-BsAb-006 to human PVRIG protein is slightly weaker than that of the corresponding monoclonal antibody (PVRIG-A50-H1b) and the positive control (COM701-hIgG1).
(ELISA stands for enzyme-linked immunosorbent assay.)

The target of test [2] is T2, human PVRIG (AcroBiosystems, Cat NO. PVG-H52H4) (human, UniProt Q6DKI7 41-171, limits assumed).
T2 construct: Bought protein with His tag; also called human PVRIG-his; human PVRIG protein
T2 sequence (looked up): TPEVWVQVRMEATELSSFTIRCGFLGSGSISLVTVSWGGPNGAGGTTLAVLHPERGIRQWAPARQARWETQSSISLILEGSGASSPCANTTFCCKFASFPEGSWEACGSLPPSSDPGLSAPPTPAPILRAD
As to the kind of experiment: ELISA, coated human PVRIG. The procedure:
(§2) The ELISA plate was pre-coated with 50 μL/well of 1.0 μg/mL human PVRIG (AcroBiosystems, Cat NO. PVG-H52H4) or 50 μL/well of 0.5 μg/mL cynomolgus monkey PVRIG (Novoprotein, Cat NO. C09B). The tested antibodies were serially diluted (initial concentration 13 nM, 3-fold serial dilution, 12 concentration points), added into the plate (50 μL/well) and incubated at 37° C. for 2.0 hours. After washing the plate, the Goat anti-human IgG Fc-HRP (Merck, Cat NO. AP113P) working solution (dilution ratio 1:5000, 50 μL/well) were added into wells and incubated at 37° C. for 1.0 hour. A HRP substrate, TMB (KPL, Cat NO. 5120-0077) was added into wells after washing the plate again and incubated at 37° C. for 10 minutes for color development. After adding a termination solution to terminate the reaction, the absorbance value was read by a microplate reader (PE, Ensight-HH3400). An antibody binding curve was drawn with molar concentration of antibodies as the abscissa and the corresponding OD value as the ordinate. The EC50 value was calculated by using a Four Parameter Logistic Fit (GraphPadPrism9). The smaller the EC50 value, the stronger the ability of the antibodies binds to human or cynomolgus monkey PVRIG. The positive control antibodies are COM701-hIgG1, PVRIG-A50-H1b and PVRIG-A105-H1; and the negative control antibodies are anti-Fluorescein-hIgG1 (in house). The binding results of the 4 humanized bispecific antibodies to human PVRIG protein are shown in FIG. 41 and Tables 40 and 41, and the binding results to cynomolgus monkey PVRIG are shown in FIG. 42 and Tables 40 and 41. […] The binding of LC-BsAb-002 and LC-BsAb-006 to human PVRIG protein is slightly weaker than that of the corresponding monoclonal antibody (PVRIG-A50-H1b) and the positive control (COM701-hIgG1).

The target of test [3] is T3, human PVRIG-mFc protein (Acro, PVG-H5253) (human, UniProt Q6DKI7 41-171, limits assumed).
T3 construct: extracellular domain; Bought protein; also called PVRIG-ECD-mFc; not shown: mouse Fc tag of the bought protein
T3 sequence (looked up): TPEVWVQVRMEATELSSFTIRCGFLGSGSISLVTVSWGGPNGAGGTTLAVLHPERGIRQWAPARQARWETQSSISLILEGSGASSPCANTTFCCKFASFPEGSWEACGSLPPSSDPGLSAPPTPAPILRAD
As to the kind of experiment: HTRF competition, PVRIG-mFc with Bio-CD112-His as competitor. Here is the method:
(§3) PVRIG-mFc (ACRO Biosystems, Cat NO. PVG-H5253) and Bio-CD112-His (Sino Biological, Cat NO. 10005-H08H) were diluted to 0.5 μg/mL, respectively. Streptavidin-Tb cryptate (Cisbio) and PAb anti mouse IgG-XL665 (Cisbio) were diluted to 20 μg/mL and 0.8 μg/mL, respectively. The tested antibodies were diluted from the initial concentration of 120 nM, by 3-fold serial dilution for 12 concentration points. The diluted PVRIG-mFc, Bio-CD112-His, Streptavidin-Tb Crytate and PAb anti mouse IgG-XL665 were mixed at 1:1:1:1, and added into a 384-well plate (PE, Cat NO. 6007299), 10 μL/well. 10 μL/well of serially diluted antibodies was added into wells, centrifuged at 1500 rpm for 30s, and incubated at 37° C. for 1 hour. The plate was read on the microplate reader (PE, Envision2105) with wavelengths of 665 nm and 620 nm. […] A Four Parameter Logistic Fit was performed with the molar concentration of the antibodies as the abscissa and Ratio as the ordinate to calculate IC50. The smaller the IC50, the better the effect of the antibody block the binding of PVRIG to PVRL2. The positive controls in this experiment are COM701-hIgG1, PVRIG-A50-H1b and PVRIG-A105-H1; and the negative control antibody is anti-Fluorescein-hIgG1 (in house). The effect of 4 humanized bispecific antibodies blocking the binding of PVRIG to PVRL2 is shown in FIG. 51 and Tables 44 and 45. […] The blocking effect of LC-BsAb-002 is better than its corresponding monoclonal antibody (PVRIG-A50-H1b) and the positive control (COM701-hIgG1). The blocking effect of LC-BsAb-006 is better than its corresponding monoclonal antibody (PVRIG-A50-H1b), but slightly weaker than the positive control (COM701-hIgG1). The blocking effects of LC-BsAb-009 and LC-BsAb-010 are not as good as their corresponding monoclonal antibodies (PVRIG-A105-H1) and the positive control (COM701-hIgG1).

Test [4] concerns the target T2, human PVRIG (AcroBiosystems, Cat NO. …). As to the kind of experiment: ELISA, coated human PVRIG. Here is the method: as §1
The source holds these as a separate data set.

Test [5] has as its target T3, human PVRIG-mFc protein (Acro, …). As to the kind of experiment: HTRF competition, PVRIG-mFc with Bio-CD112-His as competitor. Here is the method:
as §3
The source holds these as a separate data set.

Test [6] concerns the target T1, cynomolgus monkey PVRIG (Novoprotein, …). As to the kind of experiment: ELISA, coated cynomolgus PVRIG. Here is the method:
as §2
This is another data set of the same source.

Test [7] addresses T3, human PVRIG-mFc protein (Acro, …). As to the kind of experiment: FACS blocking of PVRIG-mFc binding to CHO-K1-CD112 cells; competitor CD112. In outline:
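Zombie violet-stained CHO-K1-CD112 cells were added for 30 min at 4° C, then PE goat anti-mouse IgG Fc (1:250) was applied and mean fluorescence intensity read on a BD Canto II. Curves were fitted with four-parameter logistic models in GraphPad Prism 9. IC50 and curve AUC were reported as percentages of the reference antibody values.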

B1: COM701-hIgG1 (antibody, V domains shown)
VH: QVQLVQSGAEVKKPGASVKVSCKASGYTFTDYNINWVRQAPGQGLEWMGYIYPYIGGSGYAQKFQGRVTMTRDTSTSTVYMELSSLRSEDTAVYYCAREDKTARNAMDYWGQGTLVTVSS
VL: DIQMTQSPSSLSASVGDRVTITCRVSENIYSNLAWYQQKPGKAPKLLIYEATNLAEGVPSRFSGSGSGTDFTLTISSLQPEDFATYYCQHFWGTPYTFGQGTKLEIK
notes: Anti-PVRIG positive control
Take B1: the “% relative activity COM701-hIgG1/tested antibody” value in test [1], in test [2], in test [3], in test [4], in test [5] and in test [6] was 100% throughout. For the same molecule, the “% relative activity PVRIG-A50-H1b/tested antibody” value in test [1] is 105%; in test [3], 150%; in test [4] it was 153%. Also, the EC50 stood at 0.0363 nM in test [1], 0.248 nM in test [2], 0.248 nM in test [4] and 0.0363 nM in test [6]. Further, the “% relative activity PVRIG-A105-H1/tested antibody” value in test [2] was found to be 25.6%; in test [5], 93.4%; in test [6], 66%. In addition, the IC50 in test [3] and in test [5] was 0.137 nM throughout.

B2: PVRIG-A105-H1 (Fc fusion)
chain: EVQLVESGGGLVQPGGSLRLSCAASGRTFDRHTMSWFRQAPGKEREFVATASRIPGDTYYVDSVKGRFTISRDNAKNSLYLQMNSLRAEDTAVYYCAATSAYCSEVDCYEKGSWYDNWGQGTMVTVSS
notes: VHH-human IgG1 Fc format is stated for the parental VHH antibodies; not restated for the humanized variants; also called A105.VH1; not shown: human IgG1 hinge-CH2-CH3 (Fc)
Consider B2, for which, in test [7], the “% AUC to COM701-hIgG4” value is 111%, the “% AUC to SO35-hIgG1” value was found to be 64.2%, the “% AUC to parental Ab” value turned out to be 97.9% and the “% IC50 to COM701-hIgG4” value came to 104%. Further, in test [7], the “% IC50 to SO35-hIgG1” value came out at 88.1% and the “% IC50 to parental Ab” value stood at 99.7%. Besides, in test [2], the “% relative activity COM701-hIgG1/tested antibody” value came out at 390%, the “% relative activity PVRIG-A105-H1/tested antibody” value was 100% and the EC50 worked out at 0.0636 nM. Moreover, in test [5], the “% relative activity COM701-hIgG1/tested antibody” value is 107%, the “% relative activity PVRIG-A105-H1/tested antibody” value was determined as 100% and the IC50 stood at 0.128 nM. For the same molecule, in test [6], the “% relative activity COM701-hIgG1/tested antibody” value was 152%, the “% relative activity PVRIG-A105-H1/tested antibody” value is 100% and the EC50 came to 0.0239 nM.

A word on the EC50: it is the concentration needed to bring the measured effect to its halfway point. What is called IC50 is the concentration that gives 50% inhibition.
